According to patent US20220056091A1 (BRIGHT PEAK THERAPEUTICS, published 2022):

How the values were obtained:
Assay in all cases: cell-based or functional assay
[1] = molecular target: T1, Modified IL-18 polypeptide of SEQ ID NO: 22 (E06K, K53A, C38S, C68S, C76S, C127S, K70C) (human, UniProt Q14116 37-193)
T1 chain: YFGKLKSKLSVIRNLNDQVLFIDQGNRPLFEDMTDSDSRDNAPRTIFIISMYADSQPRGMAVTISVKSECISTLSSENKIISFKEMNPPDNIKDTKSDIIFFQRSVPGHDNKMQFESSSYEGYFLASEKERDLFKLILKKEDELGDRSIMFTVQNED

[2] = molecular target: Modified IL-18 polypeptide of SEQ ID NO: 4 (K53A) (human, UniProt Q14116 37-193)
[3] = molecular target: T2, Modified IL-18 polypeptide of SEQ ID NO: 2 (E06K, K53A, S55A) (human, UniProt Q14116 37-193)
T2 chain: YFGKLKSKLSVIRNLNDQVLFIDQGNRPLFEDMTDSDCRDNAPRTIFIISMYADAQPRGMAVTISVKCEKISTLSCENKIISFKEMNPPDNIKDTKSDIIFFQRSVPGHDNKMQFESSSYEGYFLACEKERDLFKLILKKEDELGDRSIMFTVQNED

[4] = molecular target: T3, Modified IL-18 polypeptide of SEQ ID NO: 10 (E06K, K53A, S55A, T63A) (human, UniProt Q14116 37-193)
T3 chain: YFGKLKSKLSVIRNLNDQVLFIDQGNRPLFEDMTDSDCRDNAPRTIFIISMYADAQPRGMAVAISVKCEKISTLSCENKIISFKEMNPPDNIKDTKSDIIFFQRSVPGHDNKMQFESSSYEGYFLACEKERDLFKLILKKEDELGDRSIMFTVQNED

[5] = molecular target: Modified IL-18 polypeptide of SEQ ID NO: 19 (T63A) (human, UniProt Q14116 37-193)
[6] = molecular target: Modified IL-18 polypeptide of SEQ ID NO: 6 (E06K) (human, UniProt Q14116 37-193)
[7] = molecular target: Modified IL-18 polypeptide of SEQ ID NO: 5 (S55A) (human, UniProt Q14116 37-193)

B1: Fc fused human IL-18BP isoform a (IL-18BPa) (Fc fusion, UniProt O95998 31-194, looked up, not shown: a dimerising Fc or GST)
chain: TPVSQTTTAATASVRSTKDPCPSQPPVFPAAKQCPALEVTWPEVEVPLNGTLSLSCVACSRFPNFSILYWLGNGSFIEHLPGRLWEGSTSRERGSTGTQLCKALVLEQLTPALHSTNFSCVLVDPEQVVQRHVVLAQLWAGLRATLPPTQEALPSSHSSPQQQG
IC50 (nM), IL-18BPa inhibition of IFNγ release by NK-92 cells (1 nM IL-18 analyte) [1]: 23.5 nM
IC50 (nM), IL-18BPa inhibition of IFNγ release by NK-92 cells (1 nM IL-18 analyte) [2]: 27.3 nM
IC50 (nM), IL-18BPa inhibition of IFNγ release by NK-92 cells (1 nM IL-18 analyte) [3]: 229 nM
IC50 (nM), IL-18BPa inhibition of IFNγ release by NK-92 cells (1 nM IL-18 analyte) [4]: 1060 nM
IC50 (nM), IL-18BPa inhibition of IFNγ release by NK-92 cells (1 nM IL-18 analyte) [5]: 0.239 nM
IC50 (nM), IL-18BPa inhibition of IFNγ release by NK-92 cells (1 nM IL-18 analyte) [6]: 7.79 nM
IC50 (nM), IL-18BPa inhibition of IFNγ release by NK-92 cells (1 nM IL-18 analyte) [7]: 4.46 nM
